# Values of other authors, collected in article PMC9570074.
# pKd: −log10 of the molar value. Where two headings read alike, the source gives them in different places.
# Tests used:
# CD30L (Homo sapiens) = CD30L (Homo sapiens) (UniProt P32971); assay: SPR
# TRAIL (Homo sapiens) [1] = molecular target: TRAIL (Homo sapiens) (UniProt P50591)
# TRAIL (Homo sapiens) [2] = molecular target: TRAIL (Homo sapiens) (UniProt P50591); remark: listed apart in the source
# Chain of UniProt P50591 (P50591 whole entry): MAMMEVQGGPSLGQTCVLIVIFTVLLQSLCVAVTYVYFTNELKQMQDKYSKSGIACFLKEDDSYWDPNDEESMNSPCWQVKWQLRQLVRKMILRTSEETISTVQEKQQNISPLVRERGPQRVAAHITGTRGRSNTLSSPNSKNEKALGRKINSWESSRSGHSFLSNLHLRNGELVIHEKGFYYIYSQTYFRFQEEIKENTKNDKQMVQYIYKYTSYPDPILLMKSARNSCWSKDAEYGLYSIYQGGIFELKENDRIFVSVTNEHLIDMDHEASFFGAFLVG
# Chain of UniProt P32971 (P32971 whole entry): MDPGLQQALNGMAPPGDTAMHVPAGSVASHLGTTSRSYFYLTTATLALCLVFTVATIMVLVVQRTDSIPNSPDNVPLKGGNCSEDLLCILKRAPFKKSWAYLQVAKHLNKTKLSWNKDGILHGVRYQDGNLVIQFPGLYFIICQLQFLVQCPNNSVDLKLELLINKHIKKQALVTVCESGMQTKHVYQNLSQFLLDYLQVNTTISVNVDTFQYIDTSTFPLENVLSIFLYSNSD
substance,measurement,setting,value
CD30 (from UniProt P28908),pKd,CD30L (Homo sapiens),8.30
DcR1 (from UniProt O14798),pKd,TRAIL (Homo sapiens) [1],9.00
DcR2 (from UniProt Q9UBN6),pKd,TRAIL (Homo sapiens) [2],9.00
